Consider five molecules from patent US20260250410A1 (SICHUAN HUIYU PHARMACEUTICAL, published 2026).

For orientation: EC50 means the concentration at which the effect is half-maximal. A low value points to higher potency in that assay.

Assay in all cases: SPR (Caterra or Biacore), antigen immobilized
In general terms: SPR reads the build-up and loss of mass on a sensor chip optically.

One experiment addresses T1, RatCDCP1 (rat, UniProt D3ZVA1 29-666).
T1 construct: extracellular domain; not shown: Fc or his tag
T1 sequence: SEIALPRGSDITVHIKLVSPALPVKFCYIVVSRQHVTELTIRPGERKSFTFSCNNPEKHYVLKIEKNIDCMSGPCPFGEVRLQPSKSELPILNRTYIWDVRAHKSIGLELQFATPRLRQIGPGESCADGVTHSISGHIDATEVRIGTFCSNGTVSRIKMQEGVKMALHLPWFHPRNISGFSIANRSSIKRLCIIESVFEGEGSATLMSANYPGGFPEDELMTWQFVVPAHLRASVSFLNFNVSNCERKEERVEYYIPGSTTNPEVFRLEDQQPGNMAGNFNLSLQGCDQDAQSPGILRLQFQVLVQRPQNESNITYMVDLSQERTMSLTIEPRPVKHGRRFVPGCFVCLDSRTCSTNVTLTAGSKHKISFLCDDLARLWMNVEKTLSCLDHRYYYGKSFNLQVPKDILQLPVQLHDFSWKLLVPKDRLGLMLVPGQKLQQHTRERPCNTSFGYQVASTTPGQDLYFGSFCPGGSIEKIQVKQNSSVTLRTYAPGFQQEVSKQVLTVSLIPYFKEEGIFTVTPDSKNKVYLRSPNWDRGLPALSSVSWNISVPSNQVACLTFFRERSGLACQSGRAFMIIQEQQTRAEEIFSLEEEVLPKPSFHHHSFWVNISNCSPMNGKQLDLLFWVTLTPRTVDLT

Another experiment addresses T2, HuCDCP1-C (human, UniProt Q9H5V8 30-667).
T2 construct: range 30-667; expressed in HEK-293T, purified by Fc/his tag; also called human CDCP1-C; full-length extracellular domain of human CDCP1; not shown: Fc or his tag
T2 sequence (looked up): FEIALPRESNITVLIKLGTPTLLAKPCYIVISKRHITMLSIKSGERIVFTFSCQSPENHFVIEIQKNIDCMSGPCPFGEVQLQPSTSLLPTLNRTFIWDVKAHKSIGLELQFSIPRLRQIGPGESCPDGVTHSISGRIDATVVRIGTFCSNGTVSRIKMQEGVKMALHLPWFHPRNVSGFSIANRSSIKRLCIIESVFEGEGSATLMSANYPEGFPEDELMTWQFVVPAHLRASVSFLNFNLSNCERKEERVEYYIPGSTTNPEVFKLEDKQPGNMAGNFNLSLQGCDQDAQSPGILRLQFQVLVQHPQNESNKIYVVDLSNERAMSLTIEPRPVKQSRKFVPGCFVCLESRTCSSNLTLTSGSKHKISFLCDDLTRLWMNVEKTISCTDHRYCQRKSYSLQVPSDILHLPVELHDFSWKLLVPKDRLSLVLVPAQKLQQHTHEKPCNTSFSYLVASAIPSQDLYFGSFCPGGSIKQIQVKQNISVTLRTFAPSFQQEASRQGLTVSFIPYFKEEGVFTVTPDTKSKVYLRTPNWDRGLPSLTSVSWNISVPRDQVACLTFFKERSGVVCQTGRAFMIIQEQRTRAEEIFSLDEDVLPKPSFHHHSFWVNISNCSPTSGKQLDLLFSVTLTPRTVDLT

The next experiment has as its target T3, CynoCDCP1 (Macaca fascicularis, UniProt A0A2K5VLA8 30-667).
T3 construct: extracellular domain; also called Macaca fascicularis CDCP1; monkey CDCP1; not shown: Fc or his tag
T3 sequence: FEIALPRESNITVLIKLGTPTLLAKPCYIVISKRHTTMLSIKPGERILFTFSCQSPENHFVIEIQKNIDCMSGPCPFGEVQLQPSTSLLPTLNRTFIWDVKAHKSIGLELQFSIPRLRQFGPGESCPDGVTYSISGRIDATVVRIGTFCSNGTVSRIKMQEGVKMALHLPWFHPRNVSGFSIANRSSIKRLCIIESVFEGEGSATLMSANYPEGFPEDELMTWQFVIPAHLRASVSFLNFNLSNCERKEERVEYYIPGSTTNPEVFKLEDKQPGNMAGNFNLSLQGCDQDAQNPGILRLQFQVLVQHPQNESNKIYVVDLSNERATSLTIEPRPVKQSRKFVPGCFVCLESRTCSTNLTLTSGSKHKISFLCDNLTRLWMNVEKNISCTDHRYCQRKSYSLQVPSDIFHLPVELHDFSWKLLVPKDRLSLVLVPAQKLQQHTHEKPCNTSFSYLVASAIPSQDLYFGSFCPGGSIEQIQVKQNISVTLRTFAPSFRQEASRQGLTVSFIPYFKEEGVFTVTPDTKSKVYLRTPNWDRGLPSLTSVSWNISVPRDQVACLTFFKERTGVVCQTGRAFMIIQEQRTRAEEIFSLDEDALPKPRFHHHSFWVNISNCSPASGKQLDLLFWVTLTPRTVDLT

B1: 14A10C5 (antibody, V domains shown)
VH: EVKLVESGPGILQPSQTLSLTCSFSGFSLSTSGMGVSWIRQPSGKGLEWLAHIYWDDEKRYNPSLKSRLTISKDTSSNQVFLKITSVDTADTATYYCAREGSANWEAMDYWGQGTTVTVSS
VL: DIVMTQAALSLPVSLGDQASISCRSSQNIVYTNGITYLEWYLQKPGQSPKLLIYKVSNRFSGVPDRFSGSGSATDFTLKISRVEAEDLGVYYCFQSSHVPWTFGGGTKLEIK
notes: murine hybridoma mAb; also called 14A10CS
Take B1: the binding result with RatCDCP1 is recorded as “no binding (tested: 150 nM highest concentration)”. Further, the EC50 stood at 2.02 nM with HuCDCP1-C and 98.3 nM with CynoCDCP1.

B2: 5B8 (antibody, V domains shown)
VH: EVQLKESGGGLVQPGGSLRISCATSGLTFTHYHMSWVRQPPGKAPEWLAIIRNKAYGYTTDYSASVRGRFTISRDDSQSILYLQMNTLRAEDSATYYCVREGGYGYDGTFAYWGQGTTVTVSS
VL: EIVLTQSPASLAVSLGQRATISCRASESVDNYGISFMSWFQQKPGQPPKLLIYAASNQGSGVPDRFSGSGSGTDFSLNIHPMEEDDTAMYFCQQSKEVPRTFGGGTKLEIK
notes: murine hybridoma mAb
As for B2, the EC50 in the experiment with RatCDCP1 worked out at 18 nM; with HuCDCP1-C it was 1.19 nM; in the experiment with CynoCDCP1 it was 0.136 nM.

B3: 8C9 (antibody, V domains shown)
VH: EVQLKESGGGLVQPGGSLRISCATSGLTFTHYHMSWVRQPPGKAPEWLAIIRNKAYGYTTDYSASVRGRFTISRDDSQSILYLQMNTLRPEDSATYYCVREGGYGYDGTFAYWGQGTTVTVSS
VL: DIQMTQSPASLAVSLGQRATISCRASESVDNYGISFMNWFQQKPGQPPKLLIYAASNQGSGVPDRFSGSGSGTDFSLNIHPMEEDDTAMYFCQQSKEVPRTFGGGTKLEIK
notes: murine hybridoma mAb
Turning to B3, the EC50 was 30.5 nM with RatCDCP1, 1.72 nM with HuCDCP1-C and 0.564 nM with CynoCDCP1.

B4: 3F1A11 (antibody, V domains shown)
VH: EVKLVESGPGLVKPSQSLSLTCTVTGYSITSDYAWNWIRQFPGNKLEWMGYISYNTYTSYNPSLKSRISVTRDTSKNQFFLQLKSVTIEDTATYFCAGGDYYGTGAVDYWGQGTTVTVSS
VL: EIVLTQSPLSLPVSLGDQASISCRSRQTLVHTNGNTYLDWYLQKPGQSPKLLIYKVSIRFSGVPDRFSGSRSGTDFTLKISRVEAEDLGIYYCFQGSHVPWTFGGGTKLEIK
notes: murine hybridoma mAb
In the case of B4, the EC50 was 17 nM in the experiment with RatCDCP1, 37.9 nM with HuCDCP1-C and 115 nM with CynoCDCP1.

B5: 10D2 (antibody, V domains shown)
VH: EVQLQQSGPELKKPGETVKISCKASGYTFTDYSMHWVKQAPGKGLKWMGWINTETGQPTYADDFKGRFAFSLETSASSAYLQINNLKNEDTATYFCTRTFYYDYVGDYWGQGTTVTVSS
VL: DIVMTQSHKFMSTSVGDRVSITCKASQDVSTAVAWYRQKPGQSPKLLIYWASTRHTGVPDRLTGSGSGTDFALTINSVQAEDLALYYCQQHSSTPYTFGGGTKLEIK
notes: murine hybridoma mAb
In the case of B5, the EC50 in the experiment with RatCDCP1 was 41.1 nM; with HuCDCP1-C, 0.705 nM; with CynoCDCP1, 16.1 nM.
